Values quoted from earlier work in article PMC8671346.

How the values were obtained:
[1] = molecular target: GM-CSF receptor alpha chain (GMRα) (Homo sapiens) (UniProt P15509)
[2] = molecular target: GM-CSF receptor (GMRα/βc) (Homo sapiens) (UniProt P15509)

**Q.** What does the source list for GM-CSF (from UniProt P04141)?
**A.** Kd [1]: 5 nM; Kd [2]: 0.1 nM
